Source: the DeepSol protein solubility set

Test: soluble on expression in E. coli; label from the status in PepcDB or PDB records

| Sequence | soluble on expression in E. coli |
| --- | --- |
| MKRLLFLGVDVGGTKTLAVLSDEQGNVLAIYKGKGANYQVVGKENAVRNLKDVIEAILDRAGKTRKEIDFAFFGYAGADFDYEMKIVREILEKLGLEKFDFDNDGRIALRSGVFDDIGIMVSCGTGSISYASDGRRVNRIGGLSFSLGERLGSHYIASLVTSAVMRAKDGRDDWTTLVDEVEKEIGPVENLLRYDYEGGYTAELVKKVNQALFRCAEKGDAVSLRIFDEIVVEVKKIIDAHRKALNFTPPIKLILEGSFFKNAPSLLINMIESAIGREYEIVIPEHDPVIGAVLFAMERVGLRVTEDLYNRLVRNYLREVKK | soluble |
| MKRQLFTVLVCMTMFAVASCGEKKGKDKFEERIEKAKESVEDVVDDAKDQIEDKADEVGETLDKAKSKIEKAKKKLDEANRD | not soluble |
| MKRQWALEDFEIGRPLGKGKFGNVYLAREKQSKFILALKVLFKAQLEKAGVEHQLRREVEIQSHLRHPNILRLYGYFHDATRVYLILEYAPLGTVYRELQKLSKFDEQRTATYITELANALSYCHSKRVIHRDIKPENLLLGSAGELKIADFGWSVHAPSSRRTDLCGTLDYLPPEMIEGRMHDEKVDLWSLGVLCYEFLVGKPPFEANTYQETYKRISRVEFTFPDFVTEGARDLISRLLKHNPSQRPMLREVLEHPWITANSSKPSNCQNKESAAAALEHHHHHH | soluble |
| MKRTKKEFTPYNEYHDRPFELKWATAFALGELQEGIEASDEYSKRAFERLPQQTTEEIEEYLEQSLKNNQVLEIQLNTLDDFGRVQPPIVGVFEGMSSMEYVKVGHTHILFEEIRHIKSHEFTKWSSLD | not soluble |
| MKRYPRDMRGHGPTPPDAAWPGGARIAVSIVLNYEEGGENCLLHGDAQSEAFLSDIAGAQPWPGQRHWNMESIYDYGARAGFWRLHRLFTGLNIPVTVYGVATALARSPEQVAAMKSAGWEIASHGLKWVEHRDMPEEEERRQIAEAIRLHAEVVGERPRGWYTGRCSVNTVRLTAEEGGFDWISDTYDDDQPYWLETGTRDQLVIPYTLEANDMRFATAPGYIEGEQFFTYLRDSFDTLYAEGCAGQAKMFSIGLHCRLIGRPGKIAGLKRFLDYARTHERVWFPCRGDIARHWHETHPHRRRPRPSRMDRESFVAHFGGIYEHSPWIAERAFELELGPAHDSPAGLANALARIFRSATPAERLSVLKAHPDLAGKLAQARRLTASSSFEQSSAGLDALTDAERAEFATLNADYVAKHGFPFIIAVRDHDKAGILAAFETRLAHDSATEFATACRQVERIAELRLQDMLKLEHHHHHH | not soluble |
| MKSACSIITASIVLYKSKPDIIRDVITSFFSDTVTKKKLILIDNSPTDSLRVLQEERPEDIQYFFNNRNIGFGSAHNIGIREAARFNPSYHLILNPDVQFGPEVVPTLASYMDENPDIGLLMPQVYYPNGELQHLCKLFPRPWDVMLRRFVPYRSYRERNNERFELRNWSYDTIQDIPSLSGCFMFARMDILREVGGFDERFFMYAEDLDLCRRIGQVSRTVFFPKVSIMHTYAKGSYHLEHHHHHH | soluble |
| MKSAELKYLDFEDFTKLIALAKEKINPIYSSSFMIYIAAMTGMRFSELLGLTWDNVDFEKGQIYVKRTWDIYKNNFAPTKNDQSVRFLAIDSSTMQVMINYKEQQEKLLKRLEIEPEHPFVFYNIKNGLITNNSLNKQLRNMCKKLGFKKIITCHGLRHTHASTMLYKGINILYVSKRLGHSSLNVTMSVYSHILKLEHHHHHH | not soluble |
| MKSEANLRGMIDIEFYYHTCEAKKYFRNEVINYLVNLKSNVTIEMTRYWTEGADVVNHLFFCNIHGIGIPNLHGVLFQVKSYRYYSGFLLSTASQSFCG | not soluble |
| MKSFKEQYTLDERLAESREIIAKYPTRIPVIAEKYCKTDLPAIEKKKFLVPRDMSVGQFIYILSARLHLSPGKALFVFVNNTLPQTAALMDSVYESYKDDDGFVYMCYSSEKTFG | not soluble |
| MKSHVTDLTETLSSMEISRLEQQLTDFEAKKGSQIALLIIPTTQPETIEQYSIQVAEVWKLGRKGIDDGVLLLVAKNDRTLRIETGYGLEGVLPDALARRIIDEIIVPKFRQGHFFGGLQAGVEQIISIIEGETLPESLEHHHHHH | not soluble |
| MKSLEEILQYNEKFVEEKKYEEFVAGKFPNKKMVIISCMDTRLVELLPKAMNMRNGDVKIIKVAGAVISHPFGSIMRSILVAVYELGADEVCVVGHHDCGMAKIQASSTIEKMKERGITEEKLDMLRYSGIDLEQFLRGFSSVEESVEHSVSVLRNHPLLPEEVPVHGLVIDPDTGKLDLVVNGYDN | not soluble |
| MKSPQAQQILDQARRLLYEKAMVKINGQYVGTVAAIPQSDHHDLNYTEVFIRDNVPVMIFLLLQNETEIVQNFLEICLTLQSKGFPTYGIFPTSFVETENHELKADYGQRAIGRVCSVDASLWWPILAYYYVQRTGNEAWARQTHVQLGLQKFLNLILHPVFRDAPTLFVPDGAFMIDRPMDVWGAPLEIQTLLYGALKSAAGLLLIDLKAKGYCSNKDHPFDSFTMEQSHQFNLSVDWLKKLRTYLLKHYWINCNIVQALRRRPTEQYGEEASNEHNVHTETIPNWLQDWLGDRGGYLIGNIRTGRPDFRFFSLGNCLGAIFDVTSLAQQRSFFRLVLNNQRELCAQMPLRICHPPLKDDDWRSKTGFDRKNLPWCYHNAGHWPCLFWFLVVAVLRHSCHSNYGTVEYAEMGNLIRNNYEVLLRRLPKHKWAEYFDGPTGFWVGQQSRSYQTWTIVGLLLVHHFTEVNPDDALMFDLPSLKSLHQALHLEHHHHHH | not soluble |
| MKSSPKSLKMRDNLLDGTFVVIDLEATGFDVEKSEVIDLAAVRVEGGIITEKFSTLVYPGYFIPERIKKLTGITNAMLVGQPTIEEVLPEFLEFVGDNIVVGHFVEQDIKFINKYTKQYRGKKFRNPSLCTLKLARKVFPGLKKYSLKEIAENFGFETNGVHRALKDATLTAEIFIKILEELWFKYGIGDYYSLKRLEKGKF | soluble |
| MKSVTVFLLAGTTFAIYFDGKGSRHSSSSSEEHGGHGPRPGPGGPGRGGNCSPGWLRFERQSGVWCVFVGLAGINDNSFAQKDGQSACVALGATLTGFQNDKERMAVADEAGRKLGAAGGGIAGLWLGATTRAGCKAGACGPLNTFMWTDGVTTGTAGLKWATGEPDSVDYPGTAACIQQFIMLPNWVPGPYDLEGFRTGFTHGILYKFSCIAPVTPGTRMFACGKMAAG | not soluble |
| MKSYLNLKEEVWDKETCSGCGACVSVCPTENIYFKQQSPVQFDCDECACIIVPTENGESPISAEFCKVTLYDVNCGACYNACPRTKERHIFNLEKVPGRVIENYKAKSTLETKNIQSGGVVTAILANAFDEDLIDGAIVMMEDKWTMDPKSYLATSKEDVLKTAGSRYNWNVPILEVLKEAVMVKKLNKIAVVGTPCVINAVYQMMATNNDLVEPFKKAIRLKISLFCFETFDYDKMLKKLKEVEVNPWDIKKMEIDKGKLIVSTIHGNVFNFKIDEMDEYVRKGCKVCRDFTGISSDISVGNVGTPEGYSTVLVRNKWGKGFFDRAVINGYVSVEGEASIDPVISLSKKKMERKDIEFLEHHHHHH | not soluble |
| MKSYMTQRLDEYRDGNEDKGRLLVSCPDQPGIVSAVSAFLFEHGANIIESNQYTTDPEGGRFFLRIEFDCAGIREKKSSLQAAFASVAEKFDMTWSLTLASELKRVAIFVSKNLHCLHELIWEWQTGNLMAEIAVVISNHEEARELVERLNIPFHYMKANKDIRAEVEKKQLELLEQYDVDVIVLARYMQILTPDFVSAHPNRIINIHHSFLPAFIGANPYKRAYERGVKLIGATSHYVTNDLDEGPIIEQDIKRVDHRDNAETLKNIGRTIERSVLARAVKWHLEDRVIVHENK | not soluble |
| MKTALLLVDIQNDYFPNGKMELRNPVEASEYANQLLQHFRTNSEPILHIQHVAIKDDATFFLPNTEGVHIHESVRPLREETVIVKHYPNSFRETNLLEQLKRLNIEHVVVCGMMTHMCIDATVRAAFDFGFQCTVIHDACATKDLSFKNATIPAVYIHNTILASLNGVYANVISTQEFLAT | not soluble |
| MKTEEELLNRMQAYCARTEHCRSEVAAKLRQAGTDELMIERLLQRLVEDRFIDEDRFARAYARDKYRFNGWGPKRIALELVKRHIPDSIIGSTLLDLEEGEDKIEDNLPRLLERKLRSIKDTDDRGRLHRLVRWAVGRGFEYEQVMREASRLLRKGYEEDS | not soluble |
| MKTFKAVRFQIVNEHGRIIEYELEDGVIINKEESGTGWLLEIVISNEHYETFKEYQDNEQLLDIRVVITRPANDPALFESTVKSIKNFKTTMSIVFECHIYTLRQQYAESLLEQLIDDGLSGEELKKSFNRMMQSKPKLKDEKLEE | not soluble |
